Assay results published in patent US20210179728A1.

How the values were obtained:
[1] = molecular target: SIRPa on human monocytes (human) (UniProt P78324); test: flow cytometry on human monocytes v1/v1, PE anti-human Fc; MFI [B, panel B table]
[2] = molecular target: SIRPa on human monocytes (human) (UniProt P78324); test: flow cytometry on human monocytes v1/v1, PE anti-human Fc; percent of stained monocytes [B, panel A table]

EC50 [1]: 0.59 µg/mL
EC50 [2]: 0.242 µg/mL
B1: HALA (antibody, human IgG4 S228P, kappa, V domains shown)
VH: EVQLVQSGAEVKKPGESLRISCKASGYTFTSYWVHWVRQMPGKGLEWIGNIDPSDSDTHYNQKFKDHVTLSVDKSISTAYLQLSSLKASDTAMYYCVRGGTGTMAWFAYWGQGTLVTVSS
VL: DVVMTQSPLSLPVTLGQPASISCRSSQSLVHSYGNTYLYWYQQRPGQSPRLLIYRVSNRFSGVPDRFSGSGSGTDFTLKISRVEAEDVGVYFCFQGTHVPYTFGGGTKVEIKR
